One substance from patent US20050222387A1, “Smac-peptides as therapeutics against cancer and autoimmune diseases” (Deutsches Krebsforschungzentrum Stiftung Des Oeffentlichen …, priority 2002, published 2005) can be followed below.

The series in a line: Neurotoxicity by compound neurological score in the glioblastoma model. It is filed as in vivo, athymic mice. The conditions noted are these: TRAIL alone, local administration. Here is the method:
Animal studies. 5×10^4 U87MG human glioblastoma cells were stereotactically implanted into the right striatum of athymic mice (CD1 nu/nu, Charles River, Sulzfeld, Germany). At day 7 or at day 7 and day 9, mice were locally treated with Apo2L/TRAIL (2 μg/4 μl buffer) and/or Smac (1 mg/4 μl buffer) or buffer only. Tumor cell volumes were measured at day 21 or 35 after tumor cell implantation as previously described. Neurological symptoms (alertness, behaviour, weight loss, focal neurological deficits) were evaluated daily and a compound score of all categories was formed (++: severe deficits, +: deficits, −: no relevant deficits). Statistical significance was assessed using ANOVA.

“TRAIL: TNF-related apoptosis inducing ligand, death receptor ligand; recombinant human TRAIL (PeproTech)”: the “mice that developed neurological deficits” value was 2 of 6.
